Experimental findings from patent US20090169546A1 are described below.

T1: recombinant HMG1 produced in E. coli as calmodulin binding protein (CBP) fusion (human)
T1 chain: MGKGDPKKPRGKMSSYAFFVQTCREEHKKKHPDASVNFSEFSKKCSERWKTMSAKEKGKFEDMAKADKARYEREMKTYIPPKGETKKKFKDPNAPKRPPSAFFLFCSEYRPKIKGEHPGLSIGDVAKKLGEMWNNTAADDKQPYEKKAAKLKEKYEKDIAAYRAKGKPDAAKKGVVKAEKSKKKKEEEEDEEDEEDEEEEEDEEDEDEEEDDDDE

B1: anti-HMG1 antibody G20 (antibody, V domains shown)
VH: EVQLLESGGGLVQPGGSLRLSCAASGFTFSWYDMFWVRQAPGKGLEWVSWISPSGGYTKYADSVKGRFTISRDNSKNTLYLQMNSLRAEDTAMYYCARSGLDYYDSSGYLDAFDIWGQGTMVTVSS
VL: AQDIQMTQSPSSVSASVGDRVTITCRASQDVSIWLAWYQQKPGKAPKLLIFGASRLQSGVPSRFSGSRSGADFTLTIDSVQPEDFASYYCQQADSFPLTFGGGTKVEIK
B2: anti-HMG1 antibody G2 (antibody, V domains shown)
VH: EVQLLESGGGLVQPGGSLRLSCAASGFTFSWYKMQWVRQAPGKGLEWVSGISPSGGSTAYADSVKGRFTISRDNSKNTLYLQMNSLRAEDTAVYYCAKMGLFNTGNSYVDYWGQGTLVTVSS
VL: AQSELTQPPSVSEAPGQRVTISCSGSTSNIGNNAVIWYQQLPGKAPKLLIYYDDLLPSGVSDRFSGSKSGTSGSLAISGLQSEDEADYYCASWDDNLNGPLFGGGTKLTVL
B3: anti-HMG1 antibody S17 (antibody, V domains shown)
VH: EVQLLESGGGLVQPGGSLRLSCAASGFTFSYYDMHWVRQAPGKGLEWVSRISPSGGYTWYADSVKGRFTISRDNSKNTLYLQMNSLRAEDTAVYYCTRGRYTSGWHEYFDPWGQGTLVTVSS
VL: AQDIQMTQSPSSLSASVGDRVTITCRASQSIGTYLNWYQQKPGTAPKVLIYAASSLQSGVPSRFSGSGSGTDFTLTISSLQPEDFSTYYCQQSYNTPRTFGQGTKLEIK

For this experiment, the target named is T1, recombinant HMG1 produced in E. coli as …. Kind of experiment: BIAcore 3000; mAb amine-coupled to CM5, HMG1 injected in two-fold dilutions; steady-state model. The conditions noted are these: remark: other sources report otherwise.
With B1, the Kd amounted to 114 nM. Turning to B2, the Kd is 101 nM. In the case of B3 it was 331 nM.
